This assay deals with T1, human GPRASP2 (G protein-coupled receptor associated sorting protein 2), full length (human, UniProt Q96D09 1-838).
T1 construct: G protein-coupled receptor associated sorting protein 2 (GPRASP2), human, full length; also called hGPRASP2; full-length hGPRASP2; source: E. coli Rosetta2 (DE3), purified (IMAC, TEV protease, second IMAC, size exclusion chromatography)
T1 sequence (looked up): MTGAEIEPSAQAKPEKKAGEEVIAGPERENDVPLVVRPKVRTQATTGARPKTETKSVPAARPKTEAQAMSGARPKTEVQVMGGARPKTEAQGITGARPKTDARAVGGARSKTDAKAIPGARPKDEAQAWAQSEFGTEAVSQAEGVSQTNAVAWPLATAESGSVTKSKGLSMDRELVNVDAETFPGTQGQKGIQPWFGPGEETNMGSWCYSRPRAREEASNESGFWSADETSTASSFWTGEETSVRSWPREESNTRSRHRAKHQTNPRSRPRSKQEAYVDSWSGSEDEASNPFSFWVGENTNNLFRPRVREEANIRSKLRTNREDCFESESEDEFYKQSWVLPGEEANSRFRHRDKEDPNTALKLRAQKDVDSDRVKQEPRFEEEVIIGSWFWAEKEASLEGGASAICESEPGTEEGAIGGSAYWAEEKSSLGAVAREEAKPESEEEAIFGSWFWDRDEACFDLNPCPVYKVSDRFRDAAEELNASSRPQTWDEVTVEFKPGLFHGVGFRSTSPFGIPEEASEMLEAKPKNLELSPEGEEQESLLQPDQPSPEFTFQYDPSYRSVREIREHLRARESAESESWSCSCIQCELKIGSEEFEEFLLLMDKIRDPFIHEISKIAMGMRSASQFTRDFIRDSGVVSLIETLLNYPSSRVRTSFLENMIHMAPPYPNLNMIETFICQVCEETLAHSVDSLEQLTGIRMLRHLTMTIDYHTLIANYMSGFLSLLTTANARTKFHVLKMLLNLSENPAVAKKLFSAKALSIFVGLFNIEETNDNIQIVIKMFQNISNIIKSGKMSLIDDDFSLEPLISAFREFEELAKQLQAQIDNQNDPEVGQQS
The assay is described as follows: NMR titration; 1D 1H NMR (…) of 100 uM peptide before and after addition of hGPRASP2 to 0.78 uM; 600 MHz, 298 K; 50 mM sodium phosphate pH 8, 50 mM NaCl, 0.002% NaN3, 100 uM DTT, 90% H2O/10% D2O. As to conditions: both partners purified.

B1: hSMO-WT (aa533-552) peptide (peptide, UniProt Q99835 533-552, looked up)
peptide: STWVWTKATLLIWRRTWCRL
notes: source: synthetic peptide (PSL GmbH)
Regarding B1, the binding result is listed as “binds”.

B2: hSMOM2 (aa533-552-W535L) peptide (peptide, UniProt Q99835 533-552, looked up)
peptide: STLVWTKATLLIWRRTWCRL
notes: also called hSMOM2 peptide; peptide from human SMOM2; source: synthetic peptide (PSL GmbH)
B2: the binding result is “binds”.

B3: hSMO-WT (aa539-552) peptide (peptide, UniProt Q99835 539-552, looked up)
peptide: KATLLIWRRTWCRL
notes: as for B1
With B3, the binding result was “binds”.
